The source of these data is article PMC11153552, “Clock gene homologs lin-42 and kin-20 regulate circadian rhythms in C. elegans” (Scientific Reports, 2024).

The series deals with the molecule itself. Nature of the series: crystal structure; hanging-drop vapor diffusion at 22 °C; LIN-42 41-315 at 4 mg/mL; reservoir 150 mM lithium sulfate, 1.5 M sodium potassium tartrate; molecular replacement with mouse PER2 PAS-B (PDB 3GDI).

B1: LIN-42 N-terminus residues 41-315 (domain or fragment, C. elegans)
chain: GAMDPEFNTWSSSSVEFLDDADDNRLLFTCTFTLPHGTVLSSATYADGFHEQYLTIGDNFLARLEPKGQSFILSAAAASVKQRIFARVTMPDGALRACELLCEFETDRAKITVLALRSAFSLQASHVSSNFHVFTFITKHSSTCALTHIDYASIPYLGLLPTDLIGKSLLAFVYSPDVHVVRQAHIDLHNSRGKIVKSIADLRLVAHNGSILRCQTEWSAYVNPWTRKMELVVARHRICSLPIGDSDVISSPPPGIQSNTLPPVMAKTFEDELRTIMNKPVP
notes: remnant left on the N-terminus of LIN-42 after TEV cleavage of the HisGβ1 tag; LIN-42 (PERIOD homolog), C. elegans, residues 41-315; Crystallised construct was 41-315; Density was poor for the putative N-terminal PAS domain (residues 41-146), so only the PAS-B dimer was modelled; also called protease-resistant core of the LIN-42 N-terminus; LIN-42 PAS-B dimer; source: E. coli Rosetta2 (DE3), …
As for B1, the binding result was “binds”.
